What all share (assay): NanoBRET
Background: BRET reads energy transfer from a luciferase to a nearby fluorophore.

Experiment [1] has as its target Halo-SSX-C^ΔRD (SSX-C with a deletion of the SSXRD). The conditions noted are these: live HEK293T cells; mean ± S.E.M of n = 3 biological replicates; parent: est. 19; read off a plot.
Experiment [2] addresses Halo-SSX-C (HaloTag fused to the SSX1 C-terminal region present in SS18-SSX1). The conditions noted are these: live HEK293T cells; mean ± S.E.M of n = 3 biological replicates; parent: est. 72; read off a plot.
Experiment [3] has as its target Halo-SSX-C^E184* (SSX-C mutant lacking the last five amino acids). The conditions noted are these: live HEK293T cells; mean ± S.E.M of n = 3 biological replicates; parent: est. 40; read off a plot.

On to “histone H2A fused to NanoLuc luciferase (NLuc-H2A) (from UniProt P0C0S8) K118R; K119R”, for which the response in experiment [1] is 16 mBU; in experiment [2], 42 mBU; in experiment [3] it was 36 mBU.

Values taken from publication PMC10643139.
